This assay concerns the target T1, CD59 (immobilized for SPR), P13987.
T1 chain: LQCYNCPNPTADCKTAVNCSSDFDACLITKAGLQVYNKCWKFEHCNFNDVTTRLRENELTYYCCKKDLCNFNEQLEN
As to the kind of experiment: SPR. The conditions noted are these: chain shown with the change, n = 1; for other: pKD (-Log10(KD)): parent: est. 8.0, read off a plot.

Consider YSWTWGARSSVRGC [CP-06 N7A], for which the ratio to parent is 19 and the other: pKD (-Log10(KD)) stood at 6.7. On the same counts, the results for YSWTWANRSSVRGC [CP-06 G6A] are 21 and 6.7. In the case of YSWTWGNRSSARGC [CP-06 V11A], the other: pKD (-Log10(KD)) was determined as 7.6. On the same count and under the same terms, the same measure for YSWTWGNASSVRGC [CP-06 R8A]: 7.8.

Consider YSWTAGNRSSVRGC [CP-06 W5A], for which the ratio to parent was determined as 19 and the other: pKD (-Log10(KD)) came out at 6.7. In the case of YSWTWGNRASVRGC [CP-06 S9A], the other: pKD (-Log10(KD)) turned out to be 7.7.

For YSWTWGNRSAVRGC [CP-06 S10A], the other: pKD (-Log10(KD)) came out at 8. In the case of YSWAWGNRSSVRGC [CP-06 T4A], the other: pKD (-Log10(KD)) was 7.8. Same read-out and setting: the value for YSWTWGNRSSVAGC [CP-06 R12A] was 7.1. Still for that read-out and setting: the value for YAWTWGNRSSVRGC [CP-06 S2A] was 7.9.

(Values after PMC12207370, “Macrocyclic Peptide Probes for Immunomodulatory Protein CD59: Potent Modulators of Bacterial Toxin Activity and Antibody‐Dependent Cytotoxicity” (Angewandte Chemie (International Ed. in English), 2025).)
